The assay addresses CG57008 protein, membrane bound (HAVcr-1, Hepatitis A virus cellular receptor 1) (human). Nature of the assay: flow cytometry on polarized human CD4+ Th2 cells, 10 ug/ml; isotype control.

Turning to “PK16.3 isotype matched control mAb (antibody)”, the geometric mean of the fluorescence intensity was 8.4.

The values above are taken from patent publication US20050014687A1.
